± gives the uncertainty stated by the source.
Assay: self-splicing fitness, log relative to wild type (ln ratio); higher = more splicing; Tetrahymena group I intron in knt gene, E. coli kanamycin selection, DiMSum; sequences stand for … in CUCUCU…GGAGGGAAAAGUUAUCAGGCAUGCACCUGGUAGCUAGUCUUUAAACCAAUAGAUUGCAUCGGUUUAAAAGGCAAGACCGUCAAAUUGCGGGAAAGGGGUCAACAGCCGUUCAGUACCAAGUCUCAGGGGAAACUUUGAGAUGGCCUUGCAAAGGGUAUGGUAAUAAGCUGACGGACAUGGUCCUAACCACGCAGCCAAGUCCUAAGUCAACAGAUCUUCUGUUGAUAUGGAUGCAGUUCACAGACUAAAUGUCGGUCGGGGAAGAUGUAUUCUUCUCAUAAGAUAUAGUCGGACCUCUCCUUAAUGGGAGCUAGCGGAUGAAGUGAUGCAACACUGGAGCCGCUGGGAACUAAUUUGUAUGCGAAAGUAUAUUGAUUAGUUUUGGAGUACUCGUGGUCG
Method in brief: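 Colonies from six replicate transformations of E. coli BL21(DE3) were pooled and amplicon-sequenced on an Illumina HiSeq 2500. The library placed an intron with all eight P1ex-region nucleotides randomised inside the knt kanamycin-resistance gene on pET-22b(+), and cells grew overnight at 37°C or 30°C on LB agar with or without 25 μg/mL kanamycin (plus 100 μg/mL carbenicillin, 50 μM IPTG, 0.2% rhamnose). Fitness is the DiMSum error-weighted combination of wild-type-normalised replicate fold changes, kanamycin versus none.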

Sequence	self-splicing fitness (ln) (30 °C)	self-splicing fitness (ln) (37 °C)
UACGAGCAAUAUUACGCGAG	-2.49 ± 0.15	-0.597 ± 0.14
CGUUAGCAAUAUUACGCAAU	–	-1.02 ± 0.23
AUCAAGCAAUAUUACGUUUA	-1.73 ± 0.1	-1.31 ± 0.093
AUCAAGCAAUAUUACGCGAU	-4.42 ± 0.33	-3.08 ± 0.3
GUCGAGCAAUAUUACGCAUU	-2.45 ± 0.27	-0.95 ± 0.25
CAUCAGCAAUAUUACGUAAA	-1.39 ± 0.11	-0.891 ± 0.13
GCGGAGCAAUAUUACGUGGG	-2.01 ± 0.3	-2.25 ± 0.34
CUCUAGCAAUAUUACGAGAC	–	-1.17 ± 0.26
GGUGAGCAAUAUUACGGAGA	-1.36 ± 0.37	–
GGACAGCAAUAUUACGAGAC	-2.05 ± 0.33	-1.1 ± 0.16
GGAUAGCAAUAUUACGAUAU	-0.868 ± 0.14	-0.583 ± 0.19
AUACAGCAAUAUUACGUAAA	-1.87 ± 0.091	-1.41 ± 0.087
GCAAAGCAAUAUUACGCUUA	-2.59 ± 0.15	-1.46 ± 0.12
UACGAGCAAUAUUACGGUGG	-3.62 ± 0.14	-2.13 ± 0.11
GCAUAGCAAUAUUACGGUAC	-2.07 ± 0.097	-1.47 ± 0.091
CCGAAGCAAUAUUACGGCUG	-1.53 ± 0.092	-0.38 ± 0.11
CGUCAGCAAUAUUACGGUAU	-2.04 ± 0.11	-2.59 ± 0.16
CGUCAGCAAUAUUACGUGCC	-0.61 ± 0.16	0.32 ± 0.19

Sequence	self-splicing fitness (ln) (30 °C)	self-splicing fitness (ln) (37 °C)
UUGAAGCAAUAUUACGAACC	-1.68 ± 0.24	-1.77 ± 0.44
GAGAAGCAAUAUUACGCCCG	-2.15 ± 0.19	0.00226 ± 0.24
CGCAAGCAAUAUUACGUUGU	-3.69 ± 0.11	-2.41 ± 0.12
UCUAAGCAAUAUUACGAUGC	-3.03 ± 0.18	-2.28 ± 0.21
CUCUAGCAAUAUUACGGUCU	-3.26 ± 0.2	-3.06 ± 0.23
GUCGAGCAAUAUUACGCCAU	-2.99 ± 0.28	-2.4 ± 0.24
GUGCAGCAAUAUUACGCCAU	-2.23 ± 0.16	-2.62 ± 0.23
GGAUAGCAAUAUUACGCCGU	-1.74 ± 0.25	-0.441 ± 0.2
GCGCAGCAAUAUUACGCCUC	0.178 ± 0.29	-1.24 ± 0.29
AGGUAGCAAUAUUACGCUGU	-3.789 ± 0.033	-2.97 ± 0.043
GACCAGCAAUAUUACGUACU	-0.709 ± 0.069	0.123 ± 0.082
GUUGAGCAAUAUUACGAUGU	-2.43 ± 0.21	-1.03 ± 0.18
CAUUAGCAAUAUUACGAUCU	-2.48 ± 0.2	-3.22 ± 0.47
AUUAAGCAAUAUUACGUAGU	-1.53 ± 0.071	-0.166 ± 0.085
CUCUAGCAAUAUUACGAAGA	–	-2.75 ± 0.26
GACGAGCAAUAUUACGGGGU	–	-2.59 ± 0.25
ACACAGCAAUAUUACGACAC	-1.35 ± 0.081	0.0205 ± 0.11

— the supplement of paper PMC7877785
